Literature values in PMC5669632.

Columns and labels:
His25 = His25 (UniProt position 25, HGSALHWRAAG); assay: electrophysiology; settings: not stated for the quoted data (the present recordings are said to follow the same earlier protocols)
Glu118 = Glu118 (UniProt position 118, WFVGREQERRG); assay: electrophysiology; settings: not stated for the quoted data (the present recordings are said to follow the same earlier protocols)
[1] = closed channel state (model parameter pKa closed)
[2] = open channel state (model parameter pKa open)

| Substance | pKa (His25; [1]) | pKa (His25; [2]) | pKa (Glu118; [1]) | pKa (Glu118; [2]) |
| --- | --- | --- | --- | --- |
| KcsA potassium channel, E71A (non-inactivating control channel) (Streptomyces lividans; E71A) | 4.8 (N/A) | 7.6 |  |  |
| KcsA potassium channel, H25R/E71A (Streptomyces lividans; H25R;E71A) |  |  | 5.0 (0.1) | 6.2 (0.1) |
